Assay results: paper doi:10.1101/2022.09.25.509440 (bioRxiv, 2022)

Target: T1, human LRP6-ECD-Fc (human, UniProt O75581 20-1370)
T1 sequence (looked up): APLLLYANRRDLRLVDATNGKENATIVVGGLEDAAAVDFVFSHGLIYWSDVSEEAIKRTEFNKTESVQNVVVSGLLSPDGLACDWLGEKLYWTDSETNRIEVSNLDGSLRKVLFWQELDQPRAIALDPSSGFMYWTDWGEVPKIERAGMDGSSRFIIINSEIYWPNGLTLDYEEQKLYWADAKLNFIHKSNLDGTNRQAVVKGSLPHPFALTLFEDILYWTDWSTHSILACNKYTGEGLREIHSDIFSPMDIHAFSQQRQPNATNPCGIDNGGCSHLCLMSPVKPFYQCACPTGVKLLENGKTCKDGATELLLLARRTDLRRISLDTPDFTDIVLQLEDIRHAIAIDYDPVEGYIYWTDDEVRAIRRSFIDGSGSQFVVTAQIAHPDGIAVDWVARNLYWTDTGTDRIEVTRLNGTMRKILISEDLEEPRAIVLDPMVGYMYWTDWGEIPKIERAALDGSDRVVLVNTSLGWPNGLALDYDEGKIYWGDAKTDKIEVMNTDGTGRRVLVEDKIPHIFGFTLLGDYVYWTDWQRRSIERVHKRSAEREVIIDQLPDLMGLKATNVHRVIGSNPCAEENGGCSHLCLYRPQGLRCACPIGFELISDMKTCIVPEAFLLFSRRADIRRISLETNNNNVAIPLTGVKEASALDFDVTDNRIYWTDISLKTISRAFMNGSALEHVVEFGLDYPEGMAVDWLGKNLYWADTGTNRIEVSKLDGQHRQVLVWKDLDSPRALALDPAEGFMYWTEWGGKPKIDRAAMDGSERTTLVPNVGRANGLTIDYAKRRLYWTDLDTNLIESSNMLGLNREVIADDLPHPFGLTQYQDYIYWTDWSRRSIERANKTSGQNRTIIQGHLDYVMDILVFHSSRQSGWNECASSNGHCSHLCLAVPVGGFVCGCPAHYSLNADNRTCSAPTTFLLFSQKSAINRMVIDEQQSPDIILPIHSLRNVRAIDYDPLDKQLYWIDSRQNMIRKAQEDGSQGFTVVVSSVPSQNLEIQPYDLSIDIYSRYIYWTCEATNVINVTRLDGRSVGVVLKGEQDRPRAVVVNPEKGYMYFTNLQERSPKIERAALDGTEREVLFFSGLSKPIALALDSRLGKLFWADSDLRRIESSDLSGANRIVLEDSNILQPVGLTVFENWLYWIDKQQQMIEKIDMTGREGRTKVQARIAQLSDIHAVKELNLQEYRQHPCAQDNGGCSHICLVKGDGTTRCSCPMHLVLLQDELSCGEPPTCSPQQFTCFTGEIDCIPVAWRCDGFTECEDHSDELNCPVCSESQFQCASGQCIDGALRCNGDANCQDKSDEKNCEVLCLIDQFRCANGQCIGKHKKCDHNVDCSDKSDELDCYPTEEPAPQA
Assay: BLI

- binding result: binds
B1: recombinant human Wnt3a (ligand, UniProt P56704 19-352, looked up)
chain: SYPIWWSLAVGPQYSSLGSQPILCASIPGLVPKQLRFCRNYVEIMPSVAEGIKIGIQECQHQFRGRRWNCTTVHDSLAIFGPVLDKATRESAFVHAIASAGVAFAVTRSCAEGTAAICGCSSRHQGSPGKGWKWGGCSEDIEFGGMVSREFADARENRPDARSAMNRHNNEAGRQAIASHMHLKCKCHGLSGSCEVKTCWWSQPDFRAIGDFLKDKYDSASEMVVEKHRESRGWVETLRPRYTYFKVPTERDLVYYEASPNFCEPNPETGSFGTRDRTCNVSSHGIDGCDLLCCGRGHNARAERRREKCRCVFHWCCYVSCQECTRVYDVHTCK
